Drawing on publication PMC7545097, “Mapping the native interaction surfaces of PREP1 with PBX1 by cross-linking mass-spectrometry and mutagenesis” (Scientific Reports, 2020), this text covers ratio to parent for 13 variants.

B1: PBX1_(1-430), wild-type recombinant [human] / PREP1_(1-436), wild-type recombinant (TR-FIA) [not stated] (parent complex)
chain 1: MDEQPRLMHSHAGVGMAGHPGLSQHLQDGAGGTEGEGGRKQDIGDILQQIMTITDQSLDEAQARKHALNCHRMKPALFNVLCEIKEKTVLSIRGAQEEEPTDPQLMRLDNMLLAEGVAGPEKGGGSAAAAAAAAASGGAGSDNSVEHSDYRAKLSQIRQIYHTELEKYEQACNEFTTHVMNLLREQSRTRPISPKEIERMVSIIHRKFSSIQMQLKQSTCEAVMILRSRFLDARRKRRNFNKQATEILNEYFYSHLSNPYPSEEAKEELAKKCGITVSQVSNWFGNKRIRYKKNIGKFQEEANIYAAKTAVTATNVSAHGSQANSPSTPNSAGSSSSFNMSNSGDLFMSVQSLNGDSYQGAQVGANVQSQVDTLRHVISQTGGYSDGLAASQMYSPQGISANGGWQDATTPSSVTSPTEGPGSVHSDTSN
chain 2: MMATQTLSIDSYQDGQQMQVVTELKTEQDPNCSEPDAEGVSPPPVESQTPMDVDKQAIYRHPLFPLLALLFEKCEQSTQGSEGTTSASFDVDIENFVRKQEKEGKPFFCEDPETDNLMVKAIQVLRIHLLELEKVNELCKDFCSRYIACLKTKMNSETLLSGEPGSPYSPVQSQQIQSAITGTISPQGIVVPASALQQGNVAMATVAGGTVYQPVTVVTPQGQVVTQTLSPGTIRIQNSQLQLQLNQDLSILHQDDGSSKNKRGVLPKHATNVMRSWLFQHIGHPYPTEDEKKQIAAQTNLTLLQVNNWFINARRRILQPMLDSSCSETPKTKKKTAQNRPVQRFWPDSIASGVAQPPPSELTMSEGAVVTITTPVNMNVDSLQSLSSDGATLAVQQVMMAGQSEDESVDSTEEDAGALAPAHISGLVLENSDSLQ
B2: N-terminal GST-fused wild-type PREP1 [not stated] / PBX1_(1-430), wild-type recombinant [human] (parent complex)
chain 1: B1 chain 2
chain 2: B1 chain 1

In the first assay the parent is B1. The assay can be described thus: TR-FIA; parent: 1; read off a plot.
chain 1 MDEQPRLMHSHAGVGMAGHPGLSQHLQDGAGGTEGEGGRKQDIGDALQQIMTITDQSLDEAQARKHALNCHRMKPALFNVLCEIKEKTVLSIRGAQEEEPTDPQLMRLDNMLLAEGVAGPEKGGGSAAAAAAAAASGGAGSDNSVEHSDYRAKLSQIRQIYHTELEKYEQACNEFTTHVMNLLREQSRTRPISPKEIERMVSIIHRKFSSIQMQLKQSTCEAVMILRSRFLDARRKRRNFNKQATEILNEYFYSHLSNPYPSEEAKEELAKKCGITVSQVSNWFGNKRIRYKKNIGKFQEEANIYAAKTAVTATNVSAHGSQANSPSTPNSAGSSSSFNMSNSGDLFMSVQSLNGDSYQGAQVGANVQSQVDTLRHVISQTGGYSDGLAASQMYSPQGISANGGWQDATTPSSVTSPTEGPGSVHSDTSN [chain 1 I46A]: the ratio to parent is approximately 0.9.
For the variant chain 1 MDEQPRLMHSHAGVGMAGHPGLSQHLQDGAGGTEGEGGRKQDIGDILQQIMTITDQSLDEAQARKHALNCHRMKPALFNVACEIKEKTVLSIRGAQEEEPTDPQLMRLDNMLLAEGVAGPEKGGGSAAAAAAAAASGGAGSDNSVEHSDYRAKLSQIRQIYHTELEKYEQACNEFTTHVMNLLREQSRTRPISPKEIERMVSIIHRKFSSIQMQLKQSTCEAVMILRSRFLDARRKRRNFNKQATEILNEYFYSHLSNPYPSEEAKEELAKKCGITVSQVSNWFGNKRIRYKKNIGKFQEEANIYAAKTAVTATNVSAHGSQANSPSTPNSAGSSSSFNMSNSGDLFMSVQSLNGDSYQGAQVGANVQSQVDTLRHVISQTGGYSDGLAASQMYSPQGISANGGWQDATTPSSVTSPTEGPGSVHSDTSN [chain 1 L81A], the ratio to parent was approximately 0.52.
On to chain 1 MDEQPRLMHSHAGVGMAGHPGLSQHLQDGAGGTEGEGGRKQDIGDILQQIMTITDQSLDEAQARKHALNCHRMKPALFNVLCEAKEKTVLSIRGAQEEEPTDPQLMRLDNMLLAEGVAGPEKGGGSAAAAAAAAASGGAGSDNSVEHSDYRAKLSQIRQIYHTELEKYEQACNEFTTHVMNLLREQSRTRPISPKEIERMVSIIHRKFSSIQMQLKQSTCEAVMILRSRFLDARRKRRNFNKQATEILNEYFYSHLSNPYPSEEAKEELAKKCGITVSQVSNWFGNKRIRYKKNIGKFQEEANIYAAKTAVTATNVSAHGSQANSPSTPNSAGSSSSFNMSNSGDLFMSVQSLNGDSYQGAQVGANVQSQVDTLRHVISQTGGYSDGLAASQMYSPQGISANGGWQDATTPSSVTSPTEGPGSVHSDTSN [chain 1 I84A], for which the ratio to parent was approximately 0.56.
Turning to chain 1 MDEQPRLMHSHAGVGMAGHPGLSQHLQDGAGGTEGEGGRKQDIGDILQQIMTITDQSLDEAQARKHALNCHRMKPALFNVLCEIKEKTVLSIRGAQEEEPTDPQAMRADNMLAAEGVAGPEKGGGSAAAAAAAAASGGAGSDNSVEHSDYRAKLSQIRQIYHTELEKYEQACNEFTTHVMNLLREQSRTRPISPKEIERMVSIIHRKFSSIQMQLKQSTCEAVMILRSRFLDARRKRRNFNKQATEILNEYFYSHLSNPYPSEEAKEELAKKCGITVSQVSNWFGNKRIRYKKNIGKFQEEANIYAAKTAVTATNVSAHGSQANSPSTPNSAGSSSSFNMSNSGDLFMSVQSLNGDSYQGAQVGANVQSQVDTLRHVISQTGGYSDGLAASQMYSPQGISANGGWQDATTPSSVTSPTEGPGSVHSDTSN [chain 1 L105A, chain 1 L108A, chain 1 L113A], the ratio to parent was approximately 0.66.
Regarding chain 1 MDEQPRLMHSHAGVGMAGHPGLSQHLQDGAGGTEGEGGRKQDIGDILQQIMTITDQSLDEAQARKHALNCHRMKPAAFNAACEIKEKTVLSIRGAQEEEPTDPQLMRLDNMLLAEGVAGPEKGGGSAAAAAAAAASGGAGSDNSVEHSDYRAKLSQIRQIYHTELEKYEQACNEFTTHVMNLLREQSRTRPISPKEIERMVSIIHRKFSSIQMQLKQSTCEAVMILRSRFLDARRKRRNFNKQATEILNEYFYSHLSNPYPSEEAKEELAKKCGITVSQVSNWFGNKRIRYKKNIGKFQEEANIYAAKTAVTATNVSAHGSQANSPSTPNSAGSSSSFNMSNSGDLFMSVQSLNGDSYQGAQVGANVQSQVDTLRHVISQTGGYSDGLAASQMYSPQGISANGGWQDATTPSSVTSPTEGPGSVHSDTSN [chain 1 L77A, chain 1 V80A, chain 1 L81A], the ratio to parent was approximately 0.34.
The same measure, in the same setting: for chain 1 MDEQPRLMHSHAGVGMAGHPGLSQHLQDGAGGTEGEGGRKQDIGDILQQAMTATDQSLDEAQARKHALNCHRMKPALFNVLCEIKEKTVLSIRGAQEEEPTDPQLMRLDNMLLAEGVAGPEKGGGSAAAAAAAAASGGAGSDNSVEHSDYRAKLSQIRQIYHTELEKYEQACNEFTTHVMNLLREQSRTRPISPKEIERMVSIIHRKFSSIQMQLKQSTCEAVMILRSRFLDARRKRRNFNKQATEILNEYFYSHLSNPYPSEEAKEELAKKCGITVSQVSNWFGNKRIRYKKNIGKFQEEANIYAAKTAVTATNVSAHGSQANSPSTPNSAGSSSSFNMSNSGDLFMSVQSLNGDSYQGAQVGANVQSQVDTLRHVISQTGGYSDGLAASQMYSPQGISANGGWQDATTPSSVTSPTEGPGSVHSDTSN [chain 1 I50A, chain 1 I53A] the value was approximately 0.83; for chain 1 MDEQPRLMHSHAGVGMAGHPGLSQHLQDGAGGTEGEGGRKQDAGDALQQIMTITDQSLDEAQARKHALNCHRMKPALFNVLCEIKEKTVLSIRGAQEEEPTDPQLMRLDNMLLAEGVAGPEKGGGSAAAAAAAAASGGAGSDNSVEHSDYRAKLSQIRQIYHTELEKYEQACNEFTTHVMNLLREQSRTRPISPKEIERMVSIIHRKFSSIQMQLKQSTCEAVMILRSRFLDARRKRRNFNKQATEILNEYFYSHLSNPYPSEEAKEELAKKCGITVSQVSNWFGNKRIRYKKNIGKFQEEANIYAAKTAVTATNVSAHGSQANSPSTPNSAGSSSSFNMSNSGDLFMSVQSLNGDSYQGAQVGANVQSQVDTLRHVISQTGGYSDGLAASQMYSPQGISANGGWQDATTPSSVTSPTEGPGSVHSDTSN [chain 1 I43A, chain 1 I46A], approximately 0.79.
For the variant chain 1 MDEQPRLMHSHAGVGMAGHPGLSQHLQDGAGGTEGEGGRKQDAGDILQQIMTITDQSLDEAQARKHALNCHRMKPALFNVLCEIKEKTVLSIRGAQEEEPTDPQLMRLDNMLLAEGVAGPEKGGGSAAAAAAAAASGGAGSDNSVEHSDYRAKLSQIRQIYHTELEKYEQACNEFTTHVMNLLREQSRTRPISPKEIERMVSIIHRKFSSIQMQLKQSTCEAVMILRSRFLDARRKRRNFNKQATEILNEYFYSHLSNPYPSEEAKEELAKKCGITVSQVSNWFGNKRIRYKKNIGKFQEEANIYAAKTAVTATNVSAHGSQANSPSTPNSAGSSSSFNMSNSGDLFMSVQSLNGDSYQGAQVGANVQSQVDTLRHVISQTGGYSDGLAASQMYSPQGISANGGWQDATTPSSVTSPTEGPGSVHSDTSN [chain 1 I43A], the ratio to parent is approximately 1.
Same read-out and setting: for chain 1 MDEQPRLMHSHAGVGMAGHPGLSQHLQDGAGGTEGEGGRKQDIGDILQQIMTATDQSLDEAQARKHALNCHRMKPALFNVLCEIKEKTVLSIRGAQEEEPTDPQLMRLDNMLLAEGVAGPEKGGGSAAAAAAAAASGGAGSDNSVEHSDYRAKLSQIRQIYHTELEKYEQACNEFTTHVMNLLREQSRTRPISPKEIERMVSIIHRKFSSIQMQLKQSTCEAVMILRSRFLDARRKRRNFNKQATEILNEYFYSHLSNPYPSEEAKEELAKKCGITVSQVSNWFGNKRIRYKKNIGKFQEEANIYAAKTAVTATNVSAHGSQANSPSTPNSAGSSSSFNMSNSGDLFMSVQSLNGDSYQGAQVGANVQSQVDTLRHVISQTGGYSDGLAASQMYSPQGISANGGWQDATTPSSVTSPTEGPGSVHSDTSN [chain 1 I53A] the value was approximately 0.93; for chain 1 MDEQPRLMHSHAGVGMAGHPGLSQHLQDGAGGTEGEGGRKQDIGDILQQIMTITDQSLDEAQARKHALNCHRMKPALFNVLCEIKEKTVLSIRGAQEEEPTDPQLMRADNMLLAEGVAGPEKGGGSAAAAAAAAASGGAGSDNSVEHSDYRAKLSQIRQIYHTELEKYEQACNEFTTHVMNLLREQSRTRPISPKEIERMVSIIHRKFSSIQMQLKQSTCEAVMILRSRFLDARRKRRNFNKQATEILNEYFYSHLSNPYPSEEAKEELAKKCGITVSQVSNWFGNKRIRYKKNIGKFQEEANIYAAKTAVTATNVSAHGSQANSPSTPNSAGSSSSFNMSNSGDLFMSVQSLNGDSYQGAQVGANVQSQVDTLRHVISQTGGYSDGLAASQMYSPQGISANGGWQDATTPSSVTSPTEGPGSVHSDTSN [chain 1 L108A], approximately 0.73; for chain 1 MDEQPRLMHSHAGVGMAGHPGLSQHLQDGAGGTEGEGGRKQDIGDILQQIMTITDQSLDEAQARKHALNCHRMKPALFNVLCEIKEKTVLSIRGAQEEEPTDPQLMRLDNMLAAEGVAGPEKGGGSAAAAAAAAASGGAGSDNSVEHSDYRAKLSQIRQIYHTELEKYEQACNEFTTHVMNLLREQSRTRPISPKEIERMVSIIHRKFSSIQMQLKQSTCEAVMILRSRFLDARRKRRNFNKQATEILNEYFYSHLSNPYPSEEAKEELAKKCGITVSQVSNWFGNKRIRYKKNIGKFQEEANIYAAKTAVTATNVSAHGSQANSPSTPNSAGSSSSFNMSNSGDLFMSVQSLNGDSYQGAQVGANVQSQVDTLRHVISQTGGYSDGLAASQMYSPQGISANGGWQDATTPSSVTSPTEGPGSVHSDTSN [chain 1 L113A], approximately 0.66.

Variants of B2 are the subject of the next assay. The experiment in a line: TR-FIA; parent: 1; read off a plot.
As to chain 1 MMATQTLSIDSYQDGQQMQVVTELKTEQDPNCSEPDAEGVSPPPVESQTPMDVDKQAIYRHPAFPLLALLFEKCEQSTQGSEGTTSASFDVDIENFVRKQEKEGKPFFCEDPETDNLMVKAIQVLRIHLLELEKVNELCKDFCSRYIACLKTKMNSETLLSGEPGSPYSPVQSQQIQSAITGTISPQGIVVPASALQQGNVAMATVAGGTVYQPVTVVTPQGQVVTQTLSPGTIRIQNSQLQLQLNQDLSILHQDDGSSKNKRGVLPKHATNVMRSWLFQHIGHPYPTEDEKKQIAAQTNLTLLQVNNWFINARRRILQPMLDSSCSETPKTKKKTAQNRPVQRFWPDSIASGVAQPPPSELTMSEGAVVTITTPVNMNVDSLQSLSSDGATLAVQQVMMAGQSEDESVDSTEEDAGALAPAHISGLVLENSDSLQ [chain 1 L63A], the ratio to parent was approximately 0.6.
As for chain 1 MMATQTLSIDSYQDGQQMQVVTELKTEQDPNCSEPDAEGVSPPPVESQTPMDVDKQAIYRHPLFPLLALLFEKCEQSTQGSEGTTSASFDVDIENFVRKQEKEGKPFFCEDPETDNLMVKAIQVLRIHLLELEKVNELCKDFCSRYIACLKTKMNSETLLSGEPGSPYSPVQSQQIQSAITGTISPQGIVVPASALQQGNVAMATVAGGTVYQPVTVVTPQGQVVTQTLSPGTIRIQNSQLQLQLNQDLSALHQDDGSSKNKRGVLPKHATNVMRSWLFQHIGHPYPTEDEKKQIAAQTNLTLLQVNNWFINARRRILQPMLDSSCSETPKTKKKTAQNRPVQRFWPDSIASGVAQPPPSELTMSEGAVVTITTPVNMNVDSLQSLSSDGATLAVQQVMMAGQSEDESVDSTEEDAGALAPAHISGLVLENSDSLQ [chain 1 I251A], the ratio to parent was approximately 0.88.
